Results on three molecules are retold here after patent publication EP4610277A1 (Daiichi Sankyo Company, Limited, dated 2025).

Assay [1] addresses T1, recombinant KIR2DL1 (extracellular domain-Fc-Avi, in-house) (human).
T1 construct: IL-2 signal peptide left out; also called soluble KIR2DL1
In words: flow cytometry, KIR-Fc 0.1 µM on scFv-K562 cells. On the technique in general: Flow cytometry measures light scatter and fluorescence of single cells or particles in a stream.

Assay [2] has as its target T2, recombinant KIR2DS4 (extracellular domain-Fc-Avi, in-house) (human).
T2 construct: In-house; IL-2 signal peptide left out; also called soluble KIR2DS4
The assay can be described thus: flow cytometry, KIR-Fc on scFv-K562 cells.

Assay [3] addresses T3, recombinant KIR2DS1 (extracellular domain-Fc-Avi, in-house) (human).
T3 construct: In-house; IL-2 signal peptide left out; also called soluble KIR2DS1
In words: flow cytometry, KIR-Fc on scFv-K562 cells.

Assay [4] deals with T4, recombinant KIR2DS2 (extracellular domain-Fc-Avi, in-house) (human).
T4 construct: In-house; IL-2 signal peptide left out; also called soluble KIR2DS2
In words: flow cytometry, KIR-Fc on scFv-K562 cells.

Assay [5] concerns the target T5, CD32a (Fc, R&D system 1330-CD-050) (UniProt P12318 36-218).
T5 sequence (looked up): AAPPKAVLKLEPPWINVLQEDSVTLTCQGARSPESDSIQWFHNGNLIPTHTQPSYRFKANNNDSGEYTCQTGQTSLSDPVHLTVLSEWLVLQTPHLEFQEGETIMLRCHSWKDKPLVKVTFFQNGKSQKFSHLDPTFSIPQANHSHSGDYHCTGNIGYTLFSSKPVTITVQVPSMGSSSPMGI
The assay can be described thus: flow cytometry, tagged protein on scFv-K562 cells.

Assay [6] addresses CD64 (Fc, R&D system 1257-FC-050) (UniProt P12314 16-288). The assay can be described thus: flow cytometry, tagged protein on scFv-K562 cells.
Assay [7] deals with T6, CD161 (Fc, R&D system 7448-CD-050) (UniProt Q12918 67-225).
T6 construct: Bought Fc-tagged protein
In words: flow cytometry, tagged protein on scFv-K562 cells.

In assay [8] the target is CD16b (Fc, R&D system 1597-FC-050) (UniProt O75015 17-200, limits assumed). In words: flow cytometry, tagged protein on scFv-K562 cells.
Assay [9] addresses KIR2DS3 (Fc, prepared in-house) (UniProt Q14952 22-245, limits assumed). In words: flow cytometry, tagged protein on scFv-K562 cells.
Assay [10] addresses T7, NKp44 (Fc, R&D system 2249-NK-050) (UniProt O95944 22-190, limits assumed).
T7 construct: Bought Fc-tagged protein
T7 sequence (looked up): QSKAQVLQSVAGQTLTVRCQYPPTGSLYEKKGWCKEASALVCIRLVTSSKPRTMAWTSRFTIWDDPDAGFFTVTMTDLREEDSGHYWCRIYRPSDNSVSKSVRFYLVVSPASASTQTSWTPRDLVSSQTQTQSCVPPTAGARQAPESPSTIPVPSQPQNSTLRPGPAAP
The assay can be described thus: flow cytometry, tagged protein on scFv-K562 cells.

The target of assay [11] is T8, KIR2DL4 (Fc, R&D system 2238-KR-050) (UniProt Q99706 24-242, limits assumed).
T8 construct: Bought Fc-tagged protein
The assay can be described thus: flow cytometry, tagged protein on scFv-K562 cells.

The target in assay [12] is T9, KIR3DL1 (Fc, R&D system 1225-KR-050) (UniProt P43629 22-340).
T9 construct: Bought Fc-tagged protein
In words: flow cytometry, tagged protein on scFv-K562 cells.

Assay [13] deals with T10, NKG2D (Fc, R&D system 1299-NK-050) (UniProt P26718 78-216).
T10 construct: Bought Fc-tagged protein
T10 sequence (looked up): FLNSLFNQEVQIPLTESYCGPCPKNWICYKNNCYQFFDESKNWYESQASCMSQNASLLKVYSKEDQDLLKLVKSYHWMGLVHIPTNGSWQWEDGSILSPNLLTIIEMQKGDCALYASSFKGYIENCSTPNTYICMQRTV
The assay can be described thus: flow cytometry, tagged protein on scFv-K562 cells.

Assay [14] deals with T11, NKG2A (Fc, R&D system 10511-NK-050) (UniProt P26715 94-233, limits assumed).
T11 construct: Bought Fc-tagged protein
In words: flow cytometry, tagged protein on scFv-K562 cells.

Assay [15] has as its target CD16a (Fc, R&D system 4325-FC-050) (UniProt P08637 17-208). The assay can be described thus: flow cytometry, tagged protein on scFv-K562 cells.
Assay [16] has as its target T12, NKp46 (Fc, R&D system 1850-NK-025) (UniProt O76036 22-258, limits assumed).
T12 construct: Bought Fc-tagged protein
In words: flow cytometry, tagged protein on scFv-K562 cells.

The target of assay [17] is T13, recombinant human KIR3DS1/CD158e2 Fc chimera protein (4136-KR-050, R&D Systems) (human, UniProt Q14943 22-340, limits assumed).
T13 construct: Bought Fc chimera; also called soluble KIR3DS1; recombinant KIR3DS1
In words: flow cytometry, tagged protein on scFv-K562 cells.

For assay [18], the target named is T14, KIR3DL3 (Fc, R&D system 10104-KR-050) (UniProt Q8N743 26-322, limits assumed).
T14 construct: Bought Fc-tagged protein
In words: flow cytometry, tagged protein on scFv-K562 cells.

Assay [19] addresses T15, NKp30 (Fc, R&D system 1849-NK-025) (UniProt O14931 19-138, limits assumed).
T15 construct: Bought Fc-tagged protein
T15 sequence (looked up): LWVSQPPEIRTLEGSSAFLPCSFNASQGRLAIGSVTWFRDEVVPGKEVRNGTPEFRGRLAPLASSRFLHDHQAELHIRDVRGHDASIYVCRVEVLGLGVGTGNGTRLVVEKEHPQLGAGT
The assay can be described thus: flow cytometry, tagged protein on scFv-K562 cells.

Assay [20] addresses T16, NKG2E (Fc, R&D system 9759-NK-050) (UniProt Q07444 94-240, limits assumed).
T16 construct: Bought Fc-tagged protein
In words: flow cytometry, tagged protein on scFv-K562 cells.

The target in assay [21] is T17, CD32b/c (Fc, R&D system 1875-CD-050) (UniProt P31994 46-217).
T17 sequence (looked up): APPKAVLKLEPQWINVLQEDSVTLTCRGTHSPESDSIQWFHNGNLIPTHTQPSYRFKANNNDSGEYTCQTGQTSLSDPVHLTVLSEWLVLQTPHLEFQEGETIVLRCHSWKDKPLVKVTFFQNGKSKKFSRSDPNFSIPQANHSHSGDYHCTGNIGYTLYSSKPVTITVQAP
The assay can be described thus: flow cytometry, tagged protein on scFv-K562 cells.

Assay [22] has as its target T18, KIR2DL1 (Fc, R&D system 1844-KR-050) (UniProt P43626 22-245).
T18 construct: Bought Fc-tagged protein
In words: flow cytometry, tagged protein on scFv-K562 cells.

For assay [23], the target named is T19, NKG2C (Fc, R&D system 138-NK-050) (UniProt P26717 94-231, limits assumed).
T19 construct: Bought Fc-tagged protein
The assay can be described thus: flow cytometry, tagged protein on scFv-K562 cells.

Assay [24] deals with T20, KIR2DL5 (Fc, R&D system 6634-KR-050) (UniProt Q8N109 22-238, limits assumed).
T20 construct: Bought Fc-tagged protein
The assay can be described thus: flow cytometry, tagged protein on scFv-K562 cells.

Assay [25] has as its target T21, LILRB1 (Fc, R&D system 2017-T2-050) (UniProt Q8NHL6 24-458).
T21 construct: Bought Fc-tagged protein
In words: flow cytometry, tagged protein on scFv-K562 cells.

Assay [26] addresses T22, LILRB2 (His, R&D system 8429-T4-050) (UniProt Q8N423 22-458).
T22 construct: Bought His-tagged protein
In words: flow cytometry, tagged protein on scFv-K562 cells.

In assay [27] the target is T23, TIGIT (Fc, R&D system 9464-TG-050) (UniProt Q495A1 22-141).
T23 construct: Bought Fc-tagged protein
T23 sequence (looked up): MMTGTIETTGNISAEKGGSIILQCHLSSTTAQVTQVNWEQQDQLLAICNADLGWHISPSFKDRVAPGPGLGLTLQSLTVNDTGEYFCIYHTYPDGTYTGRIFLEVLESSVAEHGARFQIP
The assay can be described thus: flow cytometry, tagged protein on scFv-K562 cells.

T1 sequence (chain, as listed by the source): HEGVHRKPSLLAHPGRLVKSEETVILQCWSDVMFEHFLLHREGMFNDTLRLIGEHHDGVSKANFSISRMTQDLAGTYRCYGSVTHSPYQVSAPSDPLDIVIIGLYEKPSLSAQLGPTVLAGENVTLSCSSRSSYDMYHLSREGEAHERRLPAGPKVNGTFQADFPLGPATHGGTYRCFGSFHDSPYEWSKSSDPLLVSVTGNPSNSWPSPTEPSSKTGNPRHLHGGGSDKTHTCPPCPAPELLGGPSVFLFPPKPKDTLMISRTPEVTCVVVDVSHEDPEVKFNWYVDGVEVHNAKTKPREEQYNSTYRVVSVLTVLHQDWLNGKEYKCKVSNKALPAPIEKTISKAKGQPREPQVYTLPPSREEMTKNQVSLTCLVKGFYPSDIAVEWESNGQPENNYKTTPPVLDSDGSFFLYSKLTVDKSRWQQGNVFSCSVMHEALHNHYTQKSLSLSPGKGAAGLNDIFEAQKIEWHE
T13 sequence (Q14943 22-340 limits assumed, change not shown): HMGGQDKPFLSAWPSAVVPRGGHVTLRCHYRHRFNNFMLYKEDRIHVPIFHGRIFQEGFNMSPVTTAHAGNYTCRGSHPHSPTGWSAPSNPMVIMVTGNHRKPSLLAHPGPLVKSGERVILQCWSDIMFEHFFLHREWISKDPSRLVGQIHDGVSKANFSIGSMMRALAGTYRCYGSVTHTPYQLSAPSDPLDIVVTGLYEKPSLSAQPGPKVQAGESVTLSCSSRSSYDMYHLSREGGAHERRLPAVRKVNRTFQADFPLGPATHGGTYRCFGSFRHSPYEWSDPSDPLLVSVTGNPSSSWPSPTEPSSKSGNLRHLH
T20 sequence (Q8N109 22-238 limits assumed): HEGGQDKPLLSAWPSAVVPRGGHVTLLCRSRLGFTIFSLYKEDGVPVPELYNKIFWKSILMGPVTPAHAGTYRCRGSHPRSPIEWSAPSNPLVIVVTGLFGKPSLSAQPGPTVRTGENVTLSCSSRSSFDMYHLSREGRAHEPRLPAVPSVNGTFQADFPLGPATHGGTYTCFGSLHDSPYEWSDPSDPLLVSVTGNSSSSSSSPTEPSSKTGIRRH
T4 sequence (chain, as listed by the source): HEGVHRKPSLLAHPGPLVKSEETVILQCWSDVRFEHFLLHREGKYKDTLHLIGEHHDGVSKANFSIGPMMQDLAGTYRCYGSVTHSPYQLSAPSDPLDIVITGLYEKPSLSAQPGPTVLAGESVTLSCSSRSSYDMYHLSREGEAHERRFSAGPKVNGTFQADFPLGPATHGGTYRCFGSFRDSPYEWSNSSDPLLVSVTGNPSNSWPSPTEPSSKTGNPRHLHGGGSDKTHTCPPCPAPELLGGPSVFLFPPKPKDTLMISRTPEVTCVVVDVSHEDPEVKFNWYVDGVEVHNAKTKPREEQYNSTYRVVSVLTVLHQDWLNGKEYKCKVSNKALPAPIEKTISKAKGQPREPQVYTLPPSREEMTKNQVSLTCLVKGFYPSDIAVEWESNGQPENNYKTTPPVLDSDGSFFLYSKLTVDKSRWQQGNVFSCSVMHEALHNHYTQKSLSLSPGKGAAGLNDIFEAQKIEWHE
T16 sequence (Q07444 94-240 limits assumed): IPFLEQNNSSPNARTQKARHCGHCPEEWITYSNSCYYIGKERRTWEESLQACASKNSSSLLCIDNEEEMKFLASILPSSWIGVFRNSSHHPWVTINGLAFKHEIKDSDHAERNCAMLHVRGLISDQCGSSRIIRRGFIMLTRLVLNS
T11 sequence (P26715 94-233 limits assumed): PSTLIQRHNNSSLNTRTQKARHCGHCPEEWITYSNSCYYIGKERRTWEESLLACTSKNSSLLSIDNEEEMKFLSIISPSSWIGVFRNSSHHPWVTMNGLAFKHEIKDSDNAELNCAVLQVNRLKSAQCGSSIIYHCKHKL
T3 sequence (chain, as listed by the source): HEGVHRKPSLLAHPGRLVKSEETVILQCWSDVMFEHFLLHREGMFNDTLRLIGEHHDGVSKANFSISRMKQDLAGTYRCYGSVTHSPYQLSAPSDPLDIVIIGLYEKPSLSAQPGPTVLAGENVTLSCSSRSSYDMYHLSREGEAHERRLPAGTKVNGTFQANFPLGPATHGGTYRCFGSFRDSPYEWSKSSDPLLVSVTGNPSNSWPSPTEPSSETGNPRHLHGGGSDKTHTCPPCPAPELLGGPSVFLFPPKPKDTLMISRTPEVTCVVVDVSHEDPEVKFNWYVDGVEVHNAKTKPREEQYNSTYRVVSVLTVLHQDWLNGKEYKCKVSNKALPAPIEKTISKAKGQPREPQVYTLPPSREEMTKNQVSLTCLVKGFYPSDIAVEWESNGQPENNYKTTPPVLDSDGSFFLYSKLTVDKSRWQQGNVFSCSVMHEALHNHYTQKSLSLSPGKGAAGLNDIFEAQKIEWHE
Sequence of CD16a (Fc, R&D system 4325-FC-050) (P08637 17-208 limits assumed): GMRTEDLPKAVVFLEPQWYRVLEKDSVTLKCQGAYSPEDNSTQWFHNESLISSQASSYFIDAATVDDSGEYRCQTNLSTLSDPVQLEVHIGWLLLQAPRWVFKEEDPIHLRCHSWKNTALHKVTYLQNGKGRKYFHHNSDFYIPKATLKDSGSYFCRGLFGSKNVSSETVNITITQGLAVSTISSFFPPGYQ
T8 sequence (Q99706 24-242 limits assumed): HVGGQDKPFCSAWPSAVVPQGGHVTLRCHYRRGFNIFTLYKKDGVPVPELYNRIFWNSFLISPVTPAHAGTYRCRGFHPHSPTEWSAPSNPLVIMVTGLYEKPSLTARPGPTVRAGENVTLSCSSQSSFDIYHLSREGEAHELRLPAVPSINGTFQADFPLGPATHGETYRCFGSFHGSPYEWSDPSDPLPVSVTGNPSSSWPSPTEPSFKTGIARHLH
T14 sequence (Q8N743 26-322 limits assumed): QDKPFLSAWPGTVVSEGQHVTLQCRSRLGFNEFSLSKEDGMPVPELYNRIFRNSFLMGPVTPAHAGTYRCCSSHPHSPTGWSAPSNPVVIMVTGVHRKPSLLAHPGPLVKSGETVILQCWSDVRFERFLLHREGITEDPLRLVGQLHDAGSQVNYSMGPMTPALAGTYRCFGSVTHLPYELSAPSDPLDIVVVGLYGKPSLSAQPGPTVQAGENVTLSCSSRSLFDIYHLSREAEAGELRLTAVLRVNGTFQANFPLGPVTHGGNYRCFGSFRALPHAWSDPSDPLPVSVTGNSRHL
Sequence of CD64 (Fc, R&D system 1257-FC-050) (P12314 16-288 limits assumed): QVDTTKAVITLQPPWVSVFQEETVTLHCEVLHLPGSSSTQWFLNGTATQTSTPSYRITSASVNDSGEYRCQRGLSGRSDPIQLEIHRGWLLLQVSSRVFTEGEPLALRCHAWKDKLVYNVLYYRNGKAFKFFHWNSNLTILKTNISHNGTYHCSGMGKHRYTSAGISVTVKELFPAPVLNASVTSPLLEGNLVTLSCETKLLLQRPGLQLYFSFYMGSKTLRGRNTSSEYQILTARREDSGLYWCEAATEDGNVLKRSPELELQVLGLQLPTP
T12 sequence (O76036 22-258 limits assumed): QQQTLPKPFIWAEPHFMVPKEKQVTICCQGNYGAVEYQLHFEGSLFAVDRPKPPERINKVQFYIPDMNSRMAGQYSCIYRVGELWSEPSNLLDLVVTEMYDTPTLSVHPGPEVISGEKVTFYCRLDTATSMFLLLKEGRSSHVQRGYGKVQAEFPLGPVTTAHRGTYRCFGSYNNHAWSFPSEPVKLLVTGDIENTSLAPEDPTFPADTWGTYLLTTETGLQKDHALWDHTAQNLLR
T9 sequence (P43629 22-340 limits assumed): as the sequence (Q14943 22-340 limits assumed, change not shown) above, with V47I, G58S, M92V, R136K, W138G, S163P, R166L, L199P, L315P counted along it
Sequence of CD16b (Fc, R&D system 1597-FC-050) (O75015 17-200 limits assumed): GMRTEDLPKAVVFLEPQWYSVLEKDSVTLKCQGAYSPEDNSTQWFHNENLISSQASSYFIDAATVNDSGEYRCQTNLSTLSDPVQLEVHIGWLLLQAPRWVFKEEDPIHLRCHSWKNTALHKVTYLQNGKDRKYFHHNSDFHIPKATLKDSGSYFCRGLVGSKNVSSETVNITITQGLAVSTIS
Sequence of KIR2DS3 (Fc, prepared in-house) (Q14952 22-245 limits assumed): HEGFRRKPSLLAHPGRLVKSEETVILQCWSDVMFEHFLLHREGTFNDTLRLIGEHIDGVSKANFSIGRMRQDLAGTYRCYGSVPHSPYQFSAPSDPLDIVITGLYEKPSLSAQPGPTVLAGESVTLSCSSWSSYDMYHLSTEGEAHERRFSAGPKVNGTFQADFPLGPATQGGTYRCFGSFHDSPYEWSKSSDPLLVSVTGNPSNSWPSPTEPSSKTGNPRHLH
T2 sequence (chain, as listed by the source): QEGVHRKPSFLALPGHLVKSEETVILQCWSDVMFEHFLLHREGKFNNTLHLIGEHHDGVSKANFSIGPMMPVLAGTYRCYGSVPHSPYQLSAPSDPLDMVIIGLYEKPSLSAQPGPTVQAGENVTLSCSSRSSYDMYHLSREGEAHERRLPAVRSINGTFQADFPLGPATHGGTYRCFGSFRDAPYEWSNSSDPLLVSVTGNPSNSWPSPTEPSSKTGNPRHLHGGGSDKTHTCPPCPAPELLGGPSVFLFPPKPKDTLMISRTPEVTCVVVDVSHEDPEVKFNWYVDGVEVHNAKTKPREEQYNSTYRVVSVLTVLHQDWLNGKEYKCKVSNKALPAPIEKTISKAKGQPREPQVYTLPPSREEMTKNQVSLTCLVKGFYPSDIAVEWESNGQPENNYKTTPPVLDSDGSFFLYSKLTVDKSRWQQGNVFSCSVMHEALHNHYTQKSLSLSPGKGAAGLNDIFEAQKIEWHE
T19 sequence (P26717 94-231 limits assumed): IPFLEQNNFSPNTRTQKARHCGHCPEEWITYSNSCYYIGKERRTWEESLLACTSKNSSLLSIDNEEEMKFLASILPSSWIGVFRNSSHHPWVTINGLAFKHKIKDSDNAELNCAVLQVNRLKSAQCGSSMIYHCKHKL

B1: membrane-type a2DL1-DS1 scFv (scFv)
scFv: DYKDDDDKGSGQVQLQQSGPELVRASQTLSLTCAISGDSVSSNSATWNWIRQSPSRGLEWLGRTYYRSKWYNDYAVSVKSRITINPDTSKNQFSLQLNSVTPEDTAVYYCARDSPSYGRGVFDIWGQGTLVTVSSGGGGSGGGGSGGGGSDIVMTQSPDSLAVSLGERATINCKSSQSVLYSSNNKNYLAWYQQKPGQPPKLLIYWASTRESGVPDRFSGSGSGTDFTLTISSLQAEDVAVYYCQQYYSPPYTFGQGTKLEIKALSNSIMYFSHFVPVFLPAKPTTTPAPRPPTPAPTIASQPLSLRPEACRPAAGGAVHTRGLDFACDIYIWAPLAGTCGVLLLSLVITLYCNH
notes: On K562 cells
For B1, the binding result in assay [1] was “binds”.

B2: membrane-type a2DL1-DS11 scFv (scFv)
scFv: DYKDDDDKGSGEVQLVQSGAEVKKPGSSVKVSCKASGGTFSSYAISWVRQAPGQGLEWMGGIIPIFGTANYAQKFQGRVTITADESTSTAYMELSSLRSEDTAVYYCARGLRFFDYWGQGTLVTVSSGGGGSGGGGSGGGGSQSVLTQPPSASGTPGQRVTISCSGSSSNIGTNTVNWYQQFPGTAPKLLIYSNNQRPSGVPDRFSGSKSGTSGSLAISGLQSEDEADYYCAAWDDSLQGWLFGGGTKLTVLALSNSIMYFSHFVPVFLPAKPTTTPAPRPPTPAPTIASQPLSLRPEACRPAAGGAVHTRGLDFACDIYIWAPLAGTCGVLLLSLVITLYCNH
notes: On K562 cells
With B2, the binding result in assay [1] is given as “binds”.

B3: membrane-type a2DL2/3-DS4 scFv (scFv)
scFv: DYKDDDDKGSGEVQLVQSGAEVKKPGSSVKVSCKASGGTFSSYAISWVRQAPGQGLEWMGGIIPIFGTANYAQKFQDRVTITADKSTSTAYMELSSLRSEDTAVYYCARGSRNFDYWGQGTLVTVSSGGGGSGGGGSGGGGSAIRMTQSPSSLSASVGDRVTIPCRASQSIGSYLNWYQQKPGKAPNLLIYAASSLQSGVPSRFSGSGSGTDFTLTISSLQPEDFATYYCQQSYSTPLTFGGGTKVDIKALSNSIMYFSHFVPVFLPAKPTTTPAPRPPTPAPTIASQPLSLRPEACRPAAGGAVHTRGLDFACDIYIWAPLAGTCGVLLLSLVITLYCNH
notes: On K562 cells
With B3, the binding result in [2], in [3], in assay [4], in assay [5], in assay [6] and in assay [7] was “no binding (tested: 0.1 µM)” in each case. For the same molecule, the binding result in assay [8], in [9], in assay [10], in assay [11], in [12] and in [13] was “no binding (tested: 0.1 µM)” each time. In addition, the binding result in assay [14], in assay [15], in assay [16], in assay [17], in [18] and in assay [19] was “no binding (tested: 0.1 µM)” each time. Also, the binding result in [20], in assay [21], in assay [22], in [23], in [24] and in assay [25] was “no binding (tested: 0.1 µM)” throughout. The binding result in [26] and in assay [27] was “no binding (tested: 0.1 µM)” in each case.
